Results taken from patent US20260151494A1 (ARO BIOTHERAPEUTICS, published 2026).
Positions count from the first letter of the chain named. Each block holds one binder with its values, some of them ahead of it.

Tests used:
[1] = biological target: T1, human CD71 extracellular domain (human, UniProt P02786 89-760); assay: primary ELISA; note: test concentration or dose not given here
T1 construct: also called hCD71; CD71-ECD

[2] = biological target: T2, human apical domain of CD71 (human, UniProt P02786 189-383, limits assumed); assay: primary ELISA; note: test concentration or dose not given here
T2 construct: domain: apical domain

[3] = biological target: T1, human CD71 extracellular domain; assay: primary ELISA; signal over HSA control; for RLU: test concentration or dose not given here
[4] = biological target: T2, human apical domain of CD71; assay: primary ELISA; signal over HSA control; for RLU: test concentration or dose not given here

T2 sequence (P02786 189-383 limits assumed): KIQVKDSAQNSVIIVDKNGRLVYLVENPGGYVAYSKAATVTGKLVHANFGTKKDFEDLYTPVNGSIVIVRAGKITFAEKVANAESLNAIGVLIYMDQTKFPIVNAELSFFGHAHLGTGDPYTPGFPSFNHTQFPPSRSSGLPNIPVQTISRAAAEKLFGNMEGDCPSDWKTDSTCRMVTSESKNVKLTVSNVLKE
T1 sequence (P02786 89-760): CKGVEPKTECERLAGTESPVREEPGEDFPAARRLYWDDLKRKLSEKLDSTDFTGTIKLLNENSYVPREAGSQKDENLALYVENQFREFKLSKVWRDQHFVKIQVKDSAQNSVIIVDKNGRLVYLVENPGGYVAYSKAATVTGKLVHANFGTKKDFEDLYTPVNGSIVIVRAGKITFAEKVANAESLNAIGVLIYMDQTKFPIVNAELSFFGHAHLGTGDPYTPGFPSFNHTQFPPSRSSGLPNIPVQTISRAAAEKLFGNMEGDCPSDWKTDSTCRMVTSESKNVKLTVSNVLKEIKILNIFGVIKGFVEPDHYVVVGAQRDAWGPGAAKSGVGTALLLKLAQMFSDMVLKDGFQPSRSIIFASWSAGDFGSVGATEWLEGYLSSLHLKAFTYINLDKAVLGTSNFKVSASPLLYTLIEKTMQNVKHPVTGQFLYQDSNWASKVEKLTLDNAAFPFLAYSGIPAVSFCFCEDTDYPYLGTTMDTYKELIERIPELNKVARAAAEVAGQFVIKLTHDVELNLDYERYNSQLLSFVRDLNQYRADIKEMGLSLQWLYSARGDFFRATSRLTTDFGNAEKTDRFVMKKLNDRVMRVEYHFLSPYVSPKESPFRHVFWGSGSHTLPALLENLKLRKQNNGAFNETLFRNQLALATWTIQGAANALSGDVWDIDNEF

B1: CD71-binding FN3 domain SEQ ID NO 384 (designed binder)
chain: MLPAPKNLVVSRVTEDSARLSWTAPDAAFDSFEIDYAENRHHGEAIALLVPGSERSYDLTGLKPGTEYIVFIGGVKGGRWSQPLVASFTT
RLU [1]: 2.04e+06 RLU | RLU [2]: 5.55e+06 RLU | hCD71:HSA [3]: 21 ratio | Apical domain:HSA [4]: 57 ratio

B2: CD71-binding FN3 domain SEQ ID NO 371 (designed binder)
chain: MLPAPKNLVVSRVTEDSARLSWTAPDAAFDSFDIDYVEFGWTGEAIALLVPGSERSYDLTGLKPGTEYWVWIGGVKGGDYSPPLNAYFTT
RLU [1]: 2.08e+06 RLU | RLU [2]: 4.4e+06 RLU | hCD71:HSA [3]: 45 ratio | Apical domain:HSA [4]: 95 ratio

B18: CD71-binding FN3 domain SEQ ID NO 381 (designed binder)
chain: MLPAPKNLVVSRVTEDSARLSWTAPDAAFDSFEIAYQELSLWGEAIVLTVPGSERSYDLTGLKPGTEYYVHIGGVKGGIWSRPLSAIFTT
RLU [1]: 2.48e+06 RLU | RLU [2]: 5.14e+06 RLU | hCD71:HSA [3]: 110 ratio | Apical domain:HSA [4]: 227 ratio

B19: CD71-binding FN3 domain SEQ ID NO 388 (designed binder)
chain: B18 chain with Q37F, L39Y, S40C, W42N, Y69W, H71Q, I79T, R82W
RLU [1]: 1.09e+06 RLU | RLU [2]: 4.29e+06 RLU | hCD71:HSA [3]: 34 ratio | Apical domain:HSA [4]: 135 ratio

B20: CD71-binding FN3 domain SEQ ID NO 352 (designed binder)
chain: B18 chain with R82S
RLU [1]: 2.38e+06 RLU | RLU [2]: 5.42e+06 RLU | hCD71:HSA [3]: 63 ratio | Apical domain:HSA [4]: 144 ratio

B21: CD71-binding FN3 domain SEQ ID NO 358 (designed binder)
chain: B18 chain with A35G, Q37W, L39N, S40A, L41Y, W42K, Y69V, H71F, I79V, R82V
RLU [1]: 2.34e+06 RLU | RLU [2]: 5.02e+06 RLU | hCD71:HSA [3]: 39 ratio | Apical domain:HSA [4]: 83 ratio

B24: CD71-binding FN3 domain SEQ ID NO 390 (designed binder)
chain: MLPAPKNLVVSRVTEDSARLSWTAPDAAFDSFEIGYFERAWFGEAIVLTVPGSERSYDLTGLKPGTEYAVFIGGVKGGSYSYPLSAIFTT
RLU [1]: 1.93e+06 RLU | RLU [2]: 4.78e+06 RLU | hCD71:HSA [3]: 53 ratio | Apical domain:HSA [4]: 131 ratio

B26: CD71-binding FN3 domain SEQ ID NO 348 (designed binder)
chain: B24 chain with G35S, R39N, A40T, F42Y, A69V, F71W, S79L, Y80W, Y82K
RLU [1]: 1.83e+06 RLU | RLU [2]: 4.8e+06 RLU | hCD71:HSA [3]: 115 ratio | Apical domain:HSA [4]: 302 ratio

B28: CD71-binding FN3 domain SEQ ID NO 362 (designed binder)
chain: MLPAPKNLVVSRVTEDSARLSWTAPDAAFDSFEIAYWENNFNGEAIILIVPGSERSYDLTGLKPGTEYVVFISGVKGGTWSYPLVAQFTT
RLU [1]: 2.24e+06 RLU | RLU [2]: 4.86e+06 RLU | hCD71:HSA [3]: 47 ratio | Apical domain:HSA [4]: 102 ratio

B29: CD71-binding FN3 domain SEQ ID NO 370 (designed binder)
chain: MLPAPKNLVVSRVTEDSARLSWTAPDAAFDSFYIAYAEPRPDGEAIVLVVPGSERSYDLTGLKPGTEYSVLIHGVKGGLLSSPLSAHFTT
RLU [1]: 2.13e+06 RLU | RLU [2]: 4.83e+06 RLU | hCD71:HSA [3]: 212 ratio | Apical domain:HSA [4]: 480 ratio

B31: CD71-binding FN3 domain SEQ ID NO 386 (designed binder)
chain: B29 chain with V47T, V49L, H87I
RLU [1]: 1.28e+06 RLU | RLU [2]: 3.96e+06 RLU | hCD71:HSA [3]: 130 ratio | Apical domain:HSA [4]: 400 ratio

B32: CD71-binding FN3 domain SEQ ID NO 359 (designed binder)
chain: B29 chain with Y33L, A35P, P39T, R40S, D42S, V49T, L79D, L80Y, H87I
RLU [1]: 3.57e+06 RLU | RLU [2]: 6.97e+06 RLU | hCD71:HSA [3]: 120 ratio | Apical domain:HSA [4]: 233 ratio

B33: CD71-binding FN3 domain SEQ ID NO 367 (designed binder)
chain: B29 chain with V47L, S85V, H87F
RLU [1]: 4.62e+06 RLU | RLU [2]: 6.51e+06 RLU | hCD71:HSA [3]: 47 ratio | Apical domain:HSA [4]: 66 ratio

B34: CD71-binding FN3 domain SEQ ID NO 374 (designed binder)
chain: B29 chain with V47Q, V49S, S85H, H87S
RLU [1]: 1e+06 RLU | RLU [2]: 3.64e+06 RLU | hCD71:HSA [3]: 76 ratio | Apical domain:HSA [4]: 277 ratio

B35: CD71-binding FN3 domain SEQ ID NO 379 (designed binder)
chain: MLPAPKNLVVSRVTEDSARLSWTAPDAAFDSFYIEYWEGYRSGEAIVLTVPGSERSYDLTGLKPGTEYRVHIWGVKGGAVSYPLSAIFTT
RLU [1]: 1.4e+06 RLU | RLU [2]: 5.13e+06 RLU | hCD71:HSA [3]: 65 ratio | Apical domain:HSA [4]: 239 ratio

B36: CD71-binding FN3 domain SEQ ID NO 397 (designed binder)
chain: MLPAPKNLVVSRVTEDSARLSWTAPDAAFDSFIILYGEAQYDGEAIVLTVPGSERSYDLTGLKPGTEYPVDIYGVKGGPYSWPLSAIFTT
RLU [1]: 1.65e+06 RLU | RLU [2]: 5.57e+06 RLU | hCD71:HSA [3]: 25 ratio | Apical domain:HSA [4]: 84 ratio

B37: CD71-binding FN3 domain SEQ ID NO 402 (designed binder)
chain: MLPAPKNLVVSRVTEDSARLSWTAPDAAFDSFGIYYWEYTGGEAIVLTVPGSERSYDLTGLKPGTEYVVRILGVKGGAYSTPLSAIFTT
RLU [1]: 2.17e+06 RLU | RLU [2]: 4.77e+06 RLU | hCD71:HSA [3]: 209 ratio | Apical domain:HSA [4]: 459 ratio

Next, values leading:

RLU [1]: 2.25e+06 RLU | RLU [2]: 3.52e+06 RLU | hCD71:HSA [3]: 392 ratio | Apical domain:HSA [4]: 612 ratio
B3: CD71-binding FN3 domain SEQ ID NO 427 (designed binder)
chain: MLPAPKNLVVSRVTEDSARLSWTAPDAAFDSFFIGYLEPQPPGEAIHLRVPGSERSYDLTGLKPGTEYNVTIQGVKGGFPSDPLIAVFTT

RLU [1]: 5.47e+06 RLU | RLU [2]: 6.56e+06 RLU | hCD71:HSA [3]: 215 ratio | Apical domain:HSA [4]: 258 ratio
B4: CD71-binding FN3 domain SEQ ID NO 439 (designed binder)
chain: B3 chain with R49F, D82V, I85N, V87Y

RLU [1]: 6.65e+06 RLU | RLU [2]: 6.73e+06 RLU | hCD71:HSA [3]: 76 ratio | Apical domain:HSA [4]: 77 ratio
B5: CD71-binding FN3 domain SEQ ID NO 445 (designed binder)
chain: B3 chain with R49F, I85V, V87S

RLU [1]: 6.19e+06 RLU | RLU [2]: 5.9e+06 RLU | hCD71:HSA [3]: 195 ratio | Apical domain:HSA [4]: 186 ratio
B6: CD71-binding FN3 domain SEQ ID NO 428 (designed binder)
chain: B3 chain with H47S, R49Y, D82N, V87Q

RLU [1]: 3.73e+06 RLU | RLU [2]: 3.11e+06 RLU | hCD71:HSA [3]: 94 ratio | Apical domain:HSA [4]: 79 ratio
B7: CD71-binding FN3 domain SEQ ID NO 432 (designed binder)
chain: B3 chain with H47A, R49Y, D82G, I85E, V87Y

RLU [1]: 3.62e+06 RLU | RLU [2]: 5.5e+06 RLU | hCD71:HSA [3]: 210 ratio | Apical domain:HSA [4]: 319 ratio
B8: CD71-binding FN3 domain SEQ ID NO 435 (designed binder)
chain: B3 chain with H47A, R49W, D82H, I85A

RLU [1]: 3.26e+06 RLU | RLU [2]: 3.57e+06 RLU | hCD71:HSA [3]: 169 ratio | Apical domain:HSA [4]: 184 ratio
B9: CD71-binding FN3 domain SEQ ID NO 433 (designed binder)
chain: B3 chain with H47A, R49Y, D82L, I85E, V87N

RLU [1]: 5.92e+06 RLU | RLU [2]: 5.74e+06 RLU | hCD71:HSA [3]: 32 ratio | Apical domain:HSA [4]: 31 ratio
B10: CD71-binding FN3 domain SEQ ID NO 441 (designed binder)
chain: B3 chain with H47L, R49W, V87N

RLU [1]: 3.64e+06 RLU | RLU [2]: 3.58e+06 RLU | hCD71:HSA [3]: 126 ratio | Apical domain:HSA [4]: 124 ratio
B11: CD71-binding FN3 domain SEQ ID NO 430 (designed binder)
chain: B3 chain with H47D, R49W, D82Y, I85S, V87S

RLU [1]: 3.13e+06 RLU | RLU [2]: 4.03e+06 RLU | hCD71:HSA [3]: 313 ratio | Apical domain:HSA [4]: 403 ratio
B12: CD71-binding FN3 domain SEQ ID NO 434 (designed binder)
chain: B3 chain with H47G, R49Q, I85Q, V87I

RLU [1]: 5.38e+06 RLU | RLU [2]: 4.4e+06 RLU | hCD71:HSA [3]: 142 ratio | Apical domain:HSA [4]: 116 ratio
B13: CD71-binding FN3 domain SEQ ID NO 443 (designed binder)
chain: B3 chain with H47E, R49Y, I85H, V87A

RLU [1]: 4.46e+06 RLU | RLU [2]: 5.66e+06 RLU | hCD71:HSA [3]: 227 ratio | Apical domain:HSA [4]: 288 ratio
B14: CD71-binding FN3 domain SEQ ID NO 436 (designed binder)
chain: B3 chain with R49L, D82E, I85W, V87K

RLU [1]: 4.96e+06 RLU | RLU [2]: 5.59e+06 RLU | hCD71:HSA [3]: 143 ratio | Apical domain:HSA [4]: 161 ratio
B15: CD71-binding FN3 domain SEQ ID NO 438 (designed binder)
chain: B3 chain with H47D, R49W, D82Y, I85L, V87I

RLU [1]: 3.22e+06 RLU | RLU [2]: 2.82e+06 RLU | hCD71:HSA [3]: 168 ratio | Apical domain:HSA [4]: 147 ratio
B16: CD71-binding FN3 domain SEQ ID NO 437 (designed binder)
chain: B3 chain with H47S, R49W, D82T, I85S, V87K

RLU [1]: 4.4e+06 RLU | RLU [2]: 4.35e+06 RLU | hCD71:HSA [3]: 89 ratio | Apical domain:HSA [4]: 88 ratio
B17: CD71-binding FN3 domain SEQ ID NO 431 (designed binder)
chain: B3 chain with H47V, R49F, D82N, I85S, V87I, F88S

RLU [1]: 1.95e+06 RLU | RLU [2]: 5.05e+06 RLU | hCD71:HSA [3]: 30 ratio | Apical domain:HSA [4]: 77 ratio
B22: CD71-binding FN3 domain SEQ ID NO 418 (designed binder)
chain: B18 chain with Q37F, L39N, L41Y, W42Y, Y69A, H71Y, I79S, R82N, F88S

RLU [1]: 2.26e+06 RLU | RLU [2]: 4.88e+06 RLU | hCD71:HSA [3]: 89 ratio | Apical domain:HSA [4]: 192 ratio
B23: CD71-binding FN3 domain SEQ ID NO 440 (designed binder)
chain: B18 chain with A35V, Q37A, L39W, S40T, L41Q, W42H, I79K, R82P, S85Y

RLU [1]: 1.73e+06 RLU | RLU [2]: 4.64e+06 RLU | hCD71:HSA [3]: 23 ratio | Apical domain:HSA [4]: 61 ratio
B25: CD71-binding FN3 domain SEQ ID NO 407 (designed binder)
chain: B18 chain with Q37F, L39T, S40C, L41R, W42T, Y69R, H71W, I79V

RLU [1]: 1.95e+06 RLU | RLU [2]: 4.39e+06 RLU | hCD71:HSA [3]: 124 ratio | Apical domain:HSA [4]: 280 ratio
B27: CD71-binding FN3 domain SEQ ID NO 429 (designed binder)
chain: B24 chain with A40S, W41F, F42Y, V47I, T49F, F71W, S79V, Y80W, Y82R

RLU [1]: 3.64e+06 RLU | RLU [2]: 5.34e+06 RLU | hCD71:HSA [3]: 233 ratio | Apical domain:HSA [4]: 342 ratio
B30: CD71-binding FN3 domain SEQ ID NO 403 (designed binder)
chain: B29 chain with V49D, S85V, H87D
